Experimental data as given in patent publication US20040197306A1 (SCHERING, published 2004).

What was measured:
Assay in all cases: FACS, FLAG-tagged ligand supernatant on Baf/3 cells with chimeric receptor, anti-FLAG M2 detection
[1] = molecular target: T1, mouse IL-17RA extracellular domain fused to transmembrane and intracellular domains of murine GCSFR, on Baf/3 … (mouse, UniProt Q60943 32-322; P40223 627-837, limits assumed)
T1 construct: extracellular domain;domain: transmembrane and intracellular domains; Chimeric receptor stably expressed on Baf/3 cells; also called MuIL-17RX-MuGCSFR (X = A)
Experimental: (§1) FACS analysis was used to determine specific binding of the various ligands to the various receptors. Baf/3 or Baf/3 mouse IL17RX-mouse GCSFR cells were incubated with ligand containing cell supernatants for one hour on ice. The cells were then washed once in FACS buffer and resuspended in 10 μg/ml ANTI-FLAG® M2 antibody (Sigma, St. Louis, Mo.) for one hour on ice. Cells were washed once in FACS buffer and resuspended in 10 μl/ml anti-mouse IgG-PE (Jackson ImmunoResearch, West Grove, Pa.) for 30 minutes on ice. Cells were washed once in FACS buffer and resuspended in FACS buffer and 1 μl/ml propidium iodide (Roche Applied Science, Indianapolis, Ind.) and analyzed on a FACS Calibur (Becton Dickinson, San Jose, Calif.). The chimeric receptor cell based assay was used to visualize the binding of each of the IL-17 family ligands to the receptors by FACS.

[2] = molecular target: T2, mouse IL-17RD (DCRS8) extracellular domain fused to transmembrane and intracellular domains of murine GCSFR, … (mouse, UniProt Q8JZL1 17-299; P40223 627-837, limits assumed)
T2 construct: extracellular domain;domain: transmembrane and intracellular domains; Chimeric receptor stably expressed on Baf/3 cells; also called MuIL-17RX-MuGCSFR (X = D)
T2 sequence (looked up): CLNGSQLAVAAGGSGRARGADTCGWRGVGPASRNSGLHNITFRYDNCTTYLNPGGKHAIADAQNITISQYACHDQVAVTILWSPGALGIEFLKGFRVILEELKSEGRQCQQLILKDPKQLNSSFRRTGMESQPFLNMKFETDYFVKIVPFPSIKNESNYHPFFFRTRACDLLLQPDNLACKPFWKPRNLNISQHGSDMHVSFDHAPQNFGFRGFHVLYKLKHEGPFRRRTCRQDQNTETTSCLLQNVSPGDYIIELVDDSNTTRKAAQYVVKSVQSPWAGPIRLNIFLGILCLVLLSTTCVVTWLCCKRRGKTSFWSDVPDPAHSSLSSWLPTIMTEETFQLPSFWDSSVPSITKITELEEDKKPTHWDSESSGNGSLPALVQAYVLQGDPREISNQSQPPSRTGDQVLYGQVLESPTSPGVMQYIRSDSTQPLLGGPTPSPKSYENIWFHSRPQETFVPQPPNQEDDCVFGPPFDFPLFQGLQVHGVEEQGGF
Experimental: as §1

[3] = molecular target: T3, mouse IL-17RC (DCRS7) extracellular domain fused to transmembrane and intracellular domains of murine GCSFR, … (mouse, UniProt P40223 627-837, limits assumed)
T3 construct: domain: transmembrane and intracellular domains; Chimeric receptor stably expressed on Baf/3 cells; also called MuIL-17RX-MuGCSFR (X = C)
T3 sequence: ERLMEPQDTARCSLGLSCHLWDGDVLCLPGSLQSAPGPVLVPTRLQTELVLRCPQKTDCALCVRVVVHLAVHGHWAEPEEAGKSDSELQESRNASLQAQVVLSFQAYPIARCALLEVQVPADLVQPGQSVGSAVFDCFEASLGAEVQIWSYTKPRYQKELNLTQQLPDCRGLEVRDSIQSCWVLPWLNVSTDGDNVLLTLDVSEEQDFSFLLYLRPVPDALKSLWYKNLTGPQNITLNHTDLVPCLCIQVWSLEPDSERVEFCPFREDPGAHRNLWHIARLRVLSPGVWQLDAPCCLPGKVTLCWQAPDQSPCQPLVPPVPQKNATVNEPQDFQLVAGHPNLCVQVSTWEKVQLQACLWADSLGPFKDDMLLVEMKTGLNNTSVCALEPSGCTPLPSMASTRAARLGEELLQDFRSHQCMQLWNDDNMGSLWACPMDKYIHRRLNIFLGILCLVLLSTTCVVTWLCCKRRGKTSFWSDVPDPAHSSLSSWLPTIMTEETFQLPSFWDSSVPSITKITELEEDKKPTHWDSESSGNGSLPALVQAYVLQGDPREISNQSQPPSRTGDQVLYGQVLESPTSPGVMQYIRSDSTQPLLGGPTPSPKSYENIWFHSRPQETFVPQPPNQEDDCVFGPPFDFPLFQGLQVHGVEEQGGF
Experimental: as §1

Measured: binding result

B1: FLAG-tagged IL-17C (ligand)
chain: HHDPSLRGHPHSHGTPHCYSAEELPLGQAPPHLLARGAKWGQALPVALVSSLEAASHRGRHERPSATTQCPVLRPEEVLEADTHQRSISPWRYRVDTDEDRYPQKLAFAECLCRGCIDARTGRETAALNSVRLLQSLLVLRRRPCSRDGSGLPTPGAFAFHTEFIHVPVGCTCVLPRSV
notes: Used as supernatant of transfected 293T cells; also called IL-71; not shown: FLAG peptide tag at the N-terminus (after the pre-protrypsin leader)
no binding: all assays above
